Experimental data: patent US20180044434A1 (PUBLIC UNIVERSITY CORPORATION YOKOHAMA CITY UNIVERSITY, published 2018)

T1: Ala mutant of TA0096, SEQ ID NO: 34
T1 peptide: EENMDDQAMQDEMEIGY

T2: Ala mutant having 3-amino acid substitution, SEQ ID NO: 45
T2 peptide: EENAAAQWMQDEMEIGY

T3: Ala mutant of TA0096, SEQ ID NO: 40
T3 peptide: EENMDDQWMQDEMAIGY

T4: Ala mutant of TA0096, SEQ ID NO: 39
T4 peptide: EENMDDQWMQDEAEIGY

T5: Ala mutant of TA0096, SEQ ID NO: 33
T5 peptide: EENMDDAWMQDEMEIGY

T6: Ala mutant having 3-amino acid substitution, SEQ ID NO: 48
T6 peptide: EENMDDQWMQDEAAAGY

T7: Ala mutant having 3-amino acid substitution, SEQ ID NO: 49
T7 peptide: EENMDDQWMQDEMEIAA

T8: Ala mutant of TA0096, SEQ ID NO: 29
T8 peptide: EEAMDDQWMQDEMEIGY

T9: Ala mutant of TA0096, SEQ ID NO: 27
T9 peptide: AENMDDQWMQDEMEIGY

T10: Ala mutant having 3-amino acid substitution, SEQ ID NO: 47
T10 peptide: EENMDDQWMAAAMEIGY

T11: Ala mutant of TA0096, SEQ ID NO: 42
T11 peptide: EENMDDQWMQDEMEIAY

T12: Ala mutant of TA0096, SEQ ID NO: 35
T12 peptide: EENMDDQWAQDEMEIGY

T13: Ala mutant of TA0096, SEQ ID NO: 37
T13 peptide: EENMDDQWMQAEMEIGY

T14: Ala mutant of TA0096, SEQ ID NO: 41
T14 peptide: EENMDDQWMQDEMEAGY

T15: Ala mutant of TA0096, SEQ ID NO: 38
T15 peptide: EENMDDQWMQDAMEIGY

T16: Ala mutant of TA0096, SEQ ID NO: 31
T16 peptide: EENMADQWMQDEMEIGY

T17: Ala mutant of TA0096, SEQ ID NO: 28
T17 peptide: EANMDDQWMQDEMEIGY

T18: Ala mutant having 3-amino acid substitution, SEQ ID NO: 44
T18 peptide: AAAMDDQWMQDEMEIGY

T19: TA0096 (peptide antigen corresponding to positions 340 to 356 of PAD4)
T19 peptide: EENMDDQWMQDEMEIGY

T20: Ala mutant of TA0096, SEQ ID NO: 36
T20 peptide: EENMDDQWMADEMEIGY

B1: G8 (antibody, V domains shown)
VH: AVTLDESGGGLQTPGGALSLVCKASGFTFSTYAMGWMRQAPGKGLEYVAAIRNDGSWTGYGAAVKGRATILRDNGQSTVRLQLSNLRAEDTGTYYCAKYTGSSGGSIGAWGHGTEVIVS
VL: ASTQPSSVSANLGGTVEITCSGGNRNYYYGWYQQKSPGSAPVTLIYANDKRPSNIPSRFSGSKSGSTGTLTITGVQAEDEAVYFCGTADTGKYVFGAGTTLTVL
notes: Chicken variable regions in a mouse chimeric antibody (IgG1); also called anti-PAD4 antibody G8
B2: H7 (antibody, V domains shown)
VH: B1 VH
VL: ASTQPSSVSANPGGTVEITCSGGSGRYYYGWYQQKSPGSAPVTVIYSSTHRPSNIPSRFSGSKSGSTATLTITGVQAEDEAVYFCGTADSSSYVFGAGTTLTVL
notes: Chicken variable regions in a mouse chimeric antibody (IgG1); also called anti-PAD4 antibody H7
B3: G6 (antibody, V domains shown)
VH: AVTLDESGGGLQTPGGALSLVCKASGFTFSSYGMEWVRQAPGKGLEYVAAIRNDGSWTGYGAAVKGRATISRDDGQSTLRLQLNNLRAEDTATYYCAKTTGSSGGSIDAWGHGTEVIVS
VL: ASTQPSSVSANLGETVKITCSGGGNYYYGWYQQKSPGSAPVTLIYANDKRPSNIPSRFSGSKSGSTGTLTITGVQAEDEAVYFCGTADTGKYVFGAGTTLTVL
notes: Chicken variable regions in a mouse chimeric antibody (IgG1); also called anti-PAD4 antibody G6

What was measured:
[1] = target: T1, Ala mutant of TA0096, SEQ ID NO: 34; assay: ELISA, alanine scan (position 347)
Description: (§1) The epitope of each of A11 etc. was identified by alanine scan. Specifically, the following procedures (i) to (iii) were carried out. (i) Each amino acid residue of the antigen sequence (SEQ ID NO: 1) was replaced by another amino acid one by one, and 17 different Ala mutants (SEQ ID Nos: 27 to 43) were synthesized. (ii) The reactivity of each of the Ala mutants toward a test antibody was evaluated (ELISA).
The “96 pAb” designated in the table refers to antiserum as obtained by immunizing a chicken with TA0096 (SEQ ID NO: 1). The 96 pAb, which is an anti-PAD4 polyclonal antibody, can substantially keep the affinity toward PAD4 even if any of single amino acids of PAD4 is replaced.

[2] = target: T21, full-length recombinant human PAD4 (human, UniProt Q9UM07 1-663); assay: ELISA, coated human PAD4; antibody 0.015625 ug/mL
T21 construct: Full-length recombinant; also called peptidylarginine deiminase 4

[3] = target: T21, full-length recombinant human PAD4; assay: ELISA, coated human PAD4; antibody 0.0002441 ug/mL
[4] = target: T2, Ala mutant having 3-amino acid …; assay: ELISA, 3-amino acid Ala mutants
Description: as §1
Note that, as additional experiments, 6 different Ala mutants having 3-amino acid substitution (SEQ ID NOs: 44 to 49) were likewise examined in the experiments.

[5] = target: T22, full-length recombinant mouse PAD4 (mouse, UniProt Q9Z183 1-666); assay: ELISA, coated mouse PAD4; antibody 1 ug/mL
T22 construct: mature; Full-length recombinant

[6] = target: T22, full-length recombinant mouse PAD4; assay: ELISA, coated mouse PAD4; antibody 0.0009766 ug/mL
[7] = target: T22, full-length recombinant mouse PAD4; assay: ELISA, coated mouse PAD4; antibody 0.0625 ug/mL
[8] = target: T3, Ala mutant of TA0096, SEQ ID NO: 40; assay: ELISA, coated peptide
[9] = target: T4, Ala mutant of TA0096, SEQ ID NO: 39; assay: ELISA, coated peptide
[10] = target: T5, Ala mutant of TA0096, SEQ ID NO: 33; assay: ELISA, coated peptide
[11] = target: T6, Ala mutant having 3-amino acid …; assay: ELISA, coated peptide
[12] = target: T7, Ala mutant having 3-amino acid …; assay: ELISA, coated peptide
[13] = target: T8, Ala mutant of TA0096, SEQ ID NO: 29; assay: ELISA, coated peptide
[14] = target: T9, Ala mutant of TA0096, SEQ ID NO: 27; assay: ELISA, coated peptide
[15] = target: T10, Ala mutant having 3-amino acid …; assay: ELISA, coated peptide
[16] = target: T2, Ala mutant having 3-amino acid …; assay: ELISA, coated peptide
[17] = target: T11, Ala mutant of TA0096, SEQ ID NO: 42; assay: ELISA, coated peptide
[18] = target: T12, Ala mutant of TA0096, SEQ ID NO: 35; assay: ELISA, coated peptide
[19] = target: T13, Ala mutant of TA0096, SEQ ID NO: 37; assay: ELISA, coated peptide
[20] = target: T14, Ala mutant of TA0096, SEQ ID NO: 41; assay: ELISA, coated peptide
[21] = target: T15, Ala mutant of TA0096, SEQ ID NO: 38; assay: ELISA, coated peptide
[22] = target: T16, Ala mutant of TA0096, SEQ ID NO: 31; assay: ELISA, coated peptide
[23] = target: T1, Ala mutant of TA0096, SEQ ID NO: 34; assay: ELISA, coated peptide
[24] = target: T17, Ala mutant of TA0096, SEQ ID NO: 28; assay: ELISA, coated peptide
[25] = target: T18, Ala mutant having 3-amino acid …; assay: ELISA, coated peptide
[26] = target: T19, TA0096 (peptide antigen corresponding …); assay: ELISA, coated peptide
[27] = target: T20, Ala mutant of TA0096, SEQ ID NO: 36; assay: ELISA, coated peptide
[28] = target: T21, full-length recombinant human PAD4; assay: ELISA, coated human PAD4; antibody 0.0625 ug/mL
[29] = target: T22, full-length recombinant mouse PAD4; assay: ELISA, coated mouse PAD4; antibody 0.0002441 ug/mL
[30] = target: T21, full-length recombinant human PAD4; assay: ELISA, coated human PAD4; antibody 6.104E-05 ug/mL

T21 sequence (Q9UM07 whole entry): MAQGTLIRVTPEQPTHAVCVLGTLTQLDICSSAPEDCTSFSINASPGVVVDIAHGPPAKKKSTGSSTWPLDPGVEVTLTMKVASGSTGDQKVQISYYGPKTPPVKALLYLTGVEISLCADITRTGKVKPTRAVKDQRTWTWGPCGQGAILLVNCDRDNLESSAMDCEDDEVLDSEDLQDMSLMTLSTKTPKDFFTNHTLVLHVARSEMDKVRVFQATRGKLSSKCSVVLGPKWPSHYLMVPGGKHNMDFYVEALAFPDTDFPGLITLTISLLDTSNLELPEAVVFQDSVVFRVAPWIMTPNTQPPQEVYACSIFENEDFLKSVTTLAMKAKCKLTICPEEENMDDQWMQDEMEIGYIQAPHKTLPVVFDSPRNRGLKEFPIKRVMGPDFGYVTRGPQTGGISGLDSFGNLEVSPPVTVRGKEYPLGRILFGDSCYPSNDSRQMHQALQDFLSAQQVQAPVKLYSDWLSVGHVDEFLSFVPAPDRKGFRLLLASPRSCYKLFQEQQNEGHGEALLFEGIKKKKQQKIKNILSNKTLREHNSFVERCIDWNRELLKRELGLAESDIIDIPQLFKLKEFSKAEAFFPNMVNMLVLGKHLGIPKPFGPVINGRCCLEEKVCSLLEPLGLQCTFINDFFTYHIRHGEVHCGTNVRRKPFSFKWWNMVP
T22 sequence (Q9Z183 whole entry): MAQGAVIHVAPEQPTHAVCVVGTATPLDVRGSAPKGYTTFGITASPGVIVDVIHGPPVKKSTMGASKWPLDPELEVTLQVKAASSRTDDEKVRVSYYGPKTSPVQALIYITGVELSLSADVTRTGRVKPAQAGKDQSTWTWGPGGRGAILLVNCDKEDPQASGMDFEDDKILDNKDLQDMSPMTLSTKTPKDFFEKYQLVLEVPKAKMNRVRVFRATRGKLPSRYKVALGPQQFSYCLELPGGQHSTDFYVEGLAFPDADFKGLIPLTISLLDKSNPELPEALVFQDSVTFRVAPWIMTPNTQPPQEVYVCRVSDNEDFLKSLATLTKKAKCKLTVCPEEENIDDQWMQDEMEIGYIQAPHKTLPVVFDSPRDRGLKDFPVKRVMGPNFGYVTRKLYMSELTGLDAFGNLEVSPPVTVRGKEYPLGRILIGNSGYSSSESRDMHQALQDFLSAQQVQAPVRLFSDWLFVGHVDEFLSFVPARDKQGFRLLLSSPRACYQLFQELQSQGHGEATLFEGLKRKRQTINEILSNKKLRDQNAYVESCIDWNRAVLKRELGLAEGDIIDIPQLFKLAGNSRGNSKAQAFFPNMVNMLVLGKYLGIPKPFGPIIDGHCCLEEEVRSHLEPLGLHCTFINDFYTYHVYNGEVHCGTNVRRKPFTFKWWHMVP

Binder | binding result [1] | OD 490/630 nm [2] | OD 490/630 nm [3] | binding result [4] | OD 490/630 nm [5] | OD 490/630 nm [6] | OD 490/630 nm [7] | OD 490/630 nm [8] | OD 490/630 nm [9] | OD 490/630 nm [10] | OD 490/630 nm [11] | OD 490/630 nm [12] | OD 490/630 nm [13] | OD 490/630 nm [14] | OD 490/630 nm [15] | OD 490/630 nm [16] | OD 490/630 nm [17] | OD 490/630 nm [18] | OD 490/630 nm [19] | OD 490/630 nm [20] | other results
B1 | no binding | 2.08 | 0.184 | no binding | 2.26 | 0.555 | 2.22 | 1.89 | 1.88 | 1.98 | 1.88 | 1.86 | 1.91 | 1.96 | 1.86 | 0.065 | 1.86 | 0.233 | 1.88 | 1.85 | OD 490/630 nm [21]: 1.91; OD 490/630 nm [22]: 1.85; OD 490/630 nm [23]: 0.04; OD 490/630 nm [24]: 1.94; OD 490/630 nm [25]: 1.9; OD 490/630 nm [26]: 1.88; OD 490/630 nm [27]: 1.92; OD 490/630 nm [28]: 2.12; OD 490/630 nm [29]: 0.205; OD 490/630 nm [30]: 0.1
B2 | no binding | 2.07 | 0.217 | no binding | 2.3 | 0.55 | 2.29 | 1.86 | 1.81 | 1.87 | 1.87 | 1.86 | 1.9 | 1.9 | 1.67 | 0.016 | 1.85 | 0.065 | 1.86 | 1.83 | OD 490/630 nm [21]: 1.99; OD 490/630 nm [22]: 0.462; OD 490/630 nm [23]: 0.066; OD 490/630 nm [24]: 1.95; OD 490/630 nm [25]: 1.9; OD 490/630 nm [26]: 1.82; OD 490/630 nm [27]: 1.87; OD 490/630 nm [28]: 2.12; OD 490/630 nm [29]: 0.224; OD 490/630 nm [30]: 0.111
B3 | no binding | 2.01 | 0.166 | no binding | 2.27 | 0.2 | 2.16 | 1.86 | 1.83 | 1.98 | 1.85 | 1.88 | 1.95 | 1.91 | 1.73 | 0.018 | 1.87 | 0.015 | 1.85 | 1.87 | OD 490/630 nm [21]: 1.92; OD 490/630 nm [22]: 1.77; OD 490/630 nm [23]: 0.042; OD 490/630 nm [24]: 1.99; OD 490/630 nm [25]: 1.92; OD 490/630 nm [26]: 1.87; OD 490/630 nm [27]: 1.85; OD 490/630 nm [28]: 2.12; OD 490/630 nm [29]: 0.071; OD 490/630 nm [30]: 0.075
